Data from article PMC7235218, “HIV-1 Tat – TLR4/MD2 interaction drives the expression of IDO-1 in monocytes derived dendritic cells through NF-κB dependent pathway” (Scientific Reports, 2020).

Molecular target: T1, Recombinant human TLR4/MD2 complex (human, UniProt O00206 24-631; Q9Y6Y9 19-160)
T1 construct: Toll-like receptor 4 (TLR4), human, soluble recombinant; MD2 (lymphocyte antigen 96), human, recombinant; No catalogue number is printed; also called rTLR4/MD2; soluble recombinant TLR4/MD2; source: bought: R&D system
T1 sequence (O00206 24-631, chain 1 of 2): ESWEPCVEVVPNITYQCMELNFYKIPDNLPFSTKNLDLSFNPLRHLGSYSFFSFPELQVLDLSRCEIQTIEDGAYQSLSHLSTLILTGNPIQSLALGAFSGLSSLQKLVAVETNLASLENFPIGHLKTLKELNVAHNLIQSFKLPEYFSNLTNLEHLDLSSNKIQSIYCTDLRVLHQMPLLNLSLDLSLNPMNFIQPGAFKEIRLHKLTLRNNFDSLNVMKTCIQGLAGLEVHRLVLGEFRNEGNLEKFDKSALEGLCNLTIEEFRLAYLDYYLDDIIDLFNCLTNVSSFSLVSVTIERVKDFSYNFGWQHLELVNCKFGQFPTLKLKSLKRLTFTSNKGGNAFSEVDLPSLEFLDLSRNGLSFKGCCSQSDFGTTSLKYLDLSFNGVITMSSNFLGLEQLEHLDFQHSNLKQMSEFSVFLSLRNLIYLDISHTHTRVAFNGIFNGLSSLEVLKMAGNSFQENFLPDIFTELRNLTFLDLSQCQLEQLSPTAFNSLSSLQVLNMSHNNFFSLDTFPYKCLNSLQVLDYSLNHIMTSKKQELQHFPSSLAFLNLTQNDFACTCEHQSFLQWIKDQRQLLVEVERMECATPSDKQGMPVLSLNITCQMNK
T1 sequence (Q9Y6Y9 19-160, chain 2 of 2): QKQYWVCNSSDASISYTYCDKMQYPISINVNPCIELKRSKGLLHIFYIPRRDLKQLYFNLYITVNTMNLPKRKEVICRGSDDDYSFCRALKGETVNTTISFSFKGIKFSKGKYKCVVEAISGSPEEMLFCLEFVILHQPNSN
Test: ELISA; solid-phase binding assay: recombinant TLR4/MD2 (1 µg/ml) coated on 96 maxisorp well plates overnight at 4 °C; GST or GST-Tat at 0.1-1 µM for 2 hours at room temperature; detected with anti-GST and a peroxidase-conjugated secondary antibody
Conditions: both partners purified

B1: Recombinant HIV-1 Tat full length protein (Tat 1-101) fused to glutathione S-transferase (natural protein)
chain: MEPVDPNLEPWKHPGSQPRTACNNCYCKKCCFHCYACFTRKGLGISYGRKKRRQRRRAPQDSQTHQASLSKQPASQSRGDPTGPTESKKKVERETETDPFD
notes: Tat protein of HIV-1 group M subtype B (isolate SF2), full length protein, Tat 1-101; Endotoxin below 0.3 EU/µg; also called GST-Tat 1-101; GST-Tat1-101
- binding result: binds
